Measured values as given in PMC4987623, “The tetrameric MotA complex as the core of the flagellar motor stator from hyperthermophilic bacterium” (Scientific Reports, 2016).

Key:
[1] = molecular target: the molecule itself; assay: cross-linking; about 0.5 mg/mL purified His-MotA in PN buffer (50 mM NaPO4 pH 7.0, 150 mM NaCl) with 0.1% (w/v) DM, 20 °C, 20 mM EDC for 0-120 min; SDS-PAGE, CBB staining and immunoblot
[2] = molecular target: the molecule itself; assay: negative-stain electron microscopy, single particle 3D reconstruction; MotA complex from the 210 kDa gel filtration fraction, stained with 2% uranyl acetate; 2-fold rotational symmetry applied; 25 Å resolution
[3] = molecular target: the molecule itself; assay: cross-linking; about 0.5 mg/mL purified His-MotA in PN buffer (50 mM NaPO4 pH 7.0, 150 mM NaCl) with 0.1% (w/v) DM, 20 °C, 0-5 mM BS3 for 5 min; SDS-PAGE, CBB staining and immunoblot

B1: MotA from Aquifex aeolicus with N-terminal histidine tag (His-MotA^Aa) (natural protein, UniProt O67122 1-254, looked up)
chain: MDVGTIIGIIAAFLLILISILIGGSITAFINVPSIFIVVGGGMAAAMGAFPLKDFIRGVLAIKKAFLWKPPDLNDVIETIGEIASKVRKEGILALEGDIELYYQKDPLLGDMIRMLVDGIDINDIKATAEMALAQLDEKMSTEVAVWEKLADLFPAFGMIGTLIGLIQMLRNLNDPSALGPGMAVALITTLYGAILANAFAIPVANKLKKAKDMEVLVKTIYIEAIEKIQKGENPNVVKQEAAIMLGVELPEEV
notes: MotA, flagellar motor stator protein of Aquifex aeolicus; full-length motA gene cloned into pColdI; four transmembrane helices, cytoplasmic residues 54-149 and 205-254; Expressed from pColdI-motA^Aa without MotB; 28 kDa with the tag; source: E. coli BL21-CodonPlus(DE3)-RIPL, membrane fraction solubilized in detergent, purified (Ni-NTA agarose, gel filtration); not shown: His6, N-terminal, kept
stoichiometry N [1]: ≥ 4
stoichiometry N [2]: 4
stoichiometry N [3]: 2
